# Laboratory results as given in patent publication US20090270309A1, “USE OF LACTOFERRIN FRAGMENTS AND HYDROLYSATES” (priority 2005, published 2009).
# B1: SEQ ID NO. 6: Bovine lactoferrin N-lobe, residues 1-280 of SEQ ID NO. 2, tryptic cleavage (protein, listed as Bos taurus)
# chain: APRKNVRWCTISQPEWFKCRRWQWRMKKLGAPSITCVRRAFALECIRAIAEKKADAVTLDGGMVFEAGRDPYKLRPVAAEIYGTKESPQTHYYAVAVVKKGSNFQLDQLQGRKSCHTGLGRSAGWIIPMGILRPYLSWTESLEPLQGAVAKFFSASCVPCIDRQAYPNLCQLCKGEGENQCACSSREPYFGYSGAFKCLQDGAGDVAFVKETTVFENLPEKADRDQYELLCLNNSRAPVDAFKECHLAQVPSHAVVARSVDGKEDLIWKLLSKAQEKFGK
# B2: SEQ ID NO. 8: Bovine lactoferrin C-lobe, residues 285-689 of SEQ ID NO. 2, controlled tryptic hydrolysis (protein, listed as Bos taurus)
# chain: SFQLFGSPPGQRDLLFKDSALGFLRIPSKVDSALYLGSRYLTTLKNLRETAEEVKARYTRVVWCAVGPEEQKKCQQWSQQSGQNVTCATASTTDDCIVLVLKGEADALNLDGGYIYTAGKCGLVPVLAENRKSSKHSSLDCVLRPTEGYLAVAVVKKANEGLTWNSLKDKKSCHTAVDRTAGWNIPMGLIVNQTGSCAFDEFFSQSCAPGADPKSRLCALCAGDDQGLDKCVPNSKEKYYGYTGAFRCLAEDVGDVAFVKNDTVWENTNGESTADWAKNLNREDFRLLCLDGTRKPVTEAQSCHLAVAPNHAVVSRSDRAAHVKQVLLHQQALFGKNGKNCPDKFCLFKSETKNLLFNDNTECLAKLGGRPTYEEYLGTEYVTAIANLKKCSTSPLLEACAFLTR
# B3: SEQ ID NO. 5: Recombinant human lactoferrin N-lobe, residues 1-333 of SEQ ID NO. 4, expressed from baby hamster kidney cells (protein)
# chain: GRRRRSVQWCAVSQPEATKCFQWQRNMRKVRGPPVSCIKRDSPIQCIQAIAENRADAVTLDGGFIYEAGLAPYKLRPVAAEVYGTERQPRTHYYAVAVVKKGGSFQLNELQGLKSCHTGLRRTAGWNVPIGTLRPFLNWTGPPEPIEAAVARFFSASCVPGADKGQFPNLCRLCAGTGENKCAFSSQEPYFSYSGAFKCLRDGAGDVAFIRESTVFEDLSDEAERDEYELLCPDNTRKPVDKFKDCHLARVPSHAVVARSVNGKEDAIWNLLRQAQEKFGKDKSPKFQLFGSPSGQKDLLFKDSAIGFSRVPPRIDSGLYLGSGYFTAIQNLR
# modifications: Recombinant human lactoferrin N-lobe
# notes: 4, expressed from baby hamster kidney cells
# B4: SEQ ID NO. 7: Bovine lactoferrin C-lobe, residues 345-689 of SEQ ID NO. 2, tryptic cleavage (protein, listed as Bos taurus)
# chain: VVWCAVGPEEQKKCQQWSQQSGQNVTCATASTTDDCIVLVLKGEADALNLDGGYIYTAGKCGLVPVLAENRKSSKHSSLDCVLRPTEGYLAVAVVKKANEGLTWNSLKDKKSCHTAVDRTAGWNIPMGLIVNQTGSCAFDEFFSQSCAPGADPKSRLCALCAGDDQGLDKCVPNSKEKYYGYTGAFRCLAEDVGDVAFVKNDTVWENTNGESTADWAKNLNREDFRLLCLDGTRKPVTEAQSCHLAVAPNHAVVSRSDRAAHVKQVLLHQQALFGKNGKNCPDKFCLFKSETKNLLFNDNTECLAKLGGRPTYEEYLGTEYVTAIANLKKCSTSPLLEACAFLTR
# B5: osteoprotegerin (protein, UniProt O00300 22-401, looked up)
# Tumor necrosis factor …: ETFPPKYLHYDEETSHQLLCDKCPPGTYLKQHCTAKWKTVCAPCPDHYYTDSWHTSDECLYCSPVCKELQYVKQECNRTHNRVCECKEGRYLEIEFCLKHRSCPPGFGVVQAGTPERNTVCKRCPDGFFSNETSSKAPCRKHTNCSVFGLLLTQKGNATHDNICSGNSESTQKCGIDVTLCEEAFFRFAVPTKFTPNWLSVLVDNLPGTKVNAESVERIKRQHSSQEQTFQLLKLWKHQNKDQDIVKKIIQDIDLCENSVQRHIGHANLTFEQLRSLMESLPGKKVGAEDIEKTIKACKPSDQILKLLSLWRIKNGDQDTLKGLMHALKHSKTYHFPKTVTQSLKKTIRFLHSFTMYKLYQKLFLEMIGNQVQSVKISCL
# B6: full length recombinant human lactoferrin: Full-length recombinant human lactoferrin, comparator (protein, UniProt P02788 1-710, looked up)
# chain: MKLVFLVLLFLGALGLCLAGRRRSVQWCAVSQPEATKCFQWQRNMRKVRGPPVSCIKRDSPIQCIQAIAENRADAVTLDGGFIYEAGLAPYKLRPVAAEVYGTERQPRTHYYAVAVVKKGGSFQLNELQGLKSCHTGLRRTAGWNVPIGTLRPFLNWTGPPEPIEAAVARFFSASCVPGADKGQFPNLCRLCAGTGENKCAFSSQEPYFSYSGAFKCLRDGAGDVAFIRESTVFEDLSDEAERDEYELLCPDNTRKPVDKFKDCHLARVPSHAVVARSVNGKEDAIWNLLRQAQEKFGKDKSPKFQLFGSPSGQKDLLFKDSAIGFSRVPPRIDSGLYLGSGYFTAIQNLRKSEEEVAARRARVVWCAVGEQELRKCNQWSGLSEGSVTCSSASTTEDCIALVLKGEADAMSLDGGYVYTAGKCGLVPVLAENYKSQQSSDPDPNCVDRPVEGYLAVAVVRRSDTSLTWNSVKGKKSCHTAVDRTAGWNIPMGLLFNQTGSCKFDEYFSQSCAPGSDPRSNLCALCIGDEQGENKCVPNSNERYYGYTGAFRCLAENAGDVAFVKDVTVLQNTDGNNNEAWAKDLKLADFALLCLDGKRKPVTEARSCHLAMAPNHAVVSRMDKVERLKQVLLHQQAKFGRNGSDCPDKFCLFQSETKNLLFNDNTECLARLHGKTTYEKYLGPQYVAGITNLKKCSTSPLLEACEFLRK
# modifications: full-length recombinant
# notes: Full-length recombinant human lactoferrin, comparator
# How the values were obtained:
# [1] = tested on: primary rat osteoblasts; assay: Proliferation of primary rat osteoblasts (cell counts and [3H]-thymidine incorporation); format: cell-based; details: for Mitogenic / proliferative effect on primary osteoblasts (in words): figure legends, significantly different from control by ANOVA, post hoc Dunnett's test; for Dose (ug/mL): minimum dose range that stimulates osteoblast proliferation: primary rat osteoblasts, Table 1
# Procedure: Osteoblasts were isolated by collagenase digestion from 20-day fetal rat ? viously described by Lowe, et al. (1991). Calvariae were dissected aseptically, and the frontal and parietal bones were stripped of their periosteum. Only the central portions of the bones, free from suture tissue, were collected. The calvariae were treated twice with phosphate buffered saline (PBS) containing 3 mM EDTA (pH 7.4) for 15 minutes at 37° C. in a shaking water bath. After washing once in PBS, the calvariae were treated twice with 3 ml of 1 mg/ml collagenase for 7 minutes at 37° C. After discarding the supernatants from digestions I and II, the calvariae were treated further two times with 3 ml of 2 mg/ml collagenase (30 mins, 37° C.). The supernatants of digestions III and IV were pooled, centrifuged, and the cells washed in Dulbecco's modified Eagle's medium (DME) with 10% fetal calf serum (FCS), suspended in DME/10% FCS, and placed in […] flasks. The cells were incubated under 5% CO2 and 95% air at 37° C. Confluence was reached by 5-6 days, at which time the cells were subcultured. After trypsinization using trypsin-EDTA (0.05%/0.53 mM), the cells were rinsed in minimum essential medium (MEM) with 5% FCS and resuspended in a fresh medium, then seeded at 5×10^4 cells/ml in 24-well plates (0.5 ml cell suspension per well, i.e., 1.4×10^4 cells/cm^2).
# Proliferation studies (cell counts and thymidine incorporation) were performed both in actively growing and non-actively growing cell populations. To produce actively growing cells, sub-confluent populations (24 h after subculturing) were placed in fresh MEM containing 1% FCS and a lactoferrin fragment sample (see Table 1 below). To produce non-actively growing cells, sub-confluent populations were placed in serum-free medium with 0.1% bovine serum albumin plus a lactoferrin fragment sample. Cell numbers were analyzed at 6, 24, and 48 hours after the addition of lactoferrin fragment samples. The cell numbers were determined after detaching cells from the wells by exposure to trypsin/EDTA (0.05%/0.53 mM) for approximately 5 minutes at 37° C. Counting was performed in a haemocytometer chamber. [3H]-thymidine incorporation into actively growing and non-actively growing cells was assessed by pulsing the cells with [3H]-thymidine (1 μCi/well) two hours before the end of the incubation. The experiment was terminated at 6, 24, or 48 hours by washing the cells in MEM containing cold thymidine followed by the addition of 10% trichloroacetic acid. The precipitate was washed twice with ethanol:ether (3:1), and the wells desiccated at room temperature. The ? redissolved in 2 M KOH at 55° C. for 30 min, neutralized with 1 M HCl, and an aliquot counted for radioactivity. For both cell counts and thymidine incorporation, each experiment at each time point was performed at least 4 different times using experimental groups consisting of at least 6 wells.
# The osteogenic response seen above was compared with that of insulin-like growth factor 1 (IGF-1), a well-recognized osteoblast mitogen. The magnitudes of response of the lactoferrin fragments were similar to IGF-1 in the same osteoblast cell culture system.
# [2] = tested on: osteoclast development in a bone marrow culture; assay: Osteoclast development in mouse bone marrow culture (count of multinucleated osteoclast-like cells); format: cell-based; details: for Concentration with significant inhibition of osteoclast development: FIG. 7; for Inhibition of osteoclast development in a bone marrow culture (in words): mouse bone marrow culture, 1 week, ANOVA P<0.0001
# Procedure: Bone marrow cultures were used to determine the effect of lactoferrin fragments on osteoclast development. The method used has been previously described (see Cornish, et al., (2001)). Bone marrow was obtained from the long bones of four to six week old Swiss male mice by flushing the marrow cavity with media. The cell suspension was incubated for two hours and the non-adherent cells were plated into 48-well plates and cultured in 1.25 vitamin D3 enriched media for 1 week with lactoferrin fragments at a range of concentrations. Cells were fixed and stained and multinucleated osteoclast-like cells were counted.
# A recombinant N-lobe fragment of full length recombinant human lactoferrin (SEQ ID NO. 5) and a lactoferrin C-lobe fragment (SEQ ID NO. 8) were tested. Osteoprotegerin was used as a positive inhibitor control. Full length recombinant human lactoferrin was also tested. The results are shown in FIGS. 6 and 7, as described above.
Molecule,Mitogenic / proliferative effect on primary osteoblasts (in words) [1],Dose (ug/mL): minimum dose range that stimulates osteoblast proliferation [1],Concentration with significant inhibition of osteoclast development ([2]; P<0.05 (post hoc Dunnett's test)),Inhibition of osteoclast development in a bone marrow culture (in words) [2],"Concentration with significant inhibition of osteoclast development ([2]; positive inhibitor control, P<0.01 (post hoc Dunnett's test))"
B1,mitogenic to primary osteoblasts,1 to 100 µg/mL,,,
B2,mitogenic to primary osteoblasts,1 to 100 µg/mL,50 µg/mL,inhibition of osteoclast development,
B3,osteoblast proliferative effects,0.1 to 10 µg/mL,,inhibition of osteoclast development,
B4,mitogenic to primary osteoblasts,1 to 100 µg/mL,,,
B5,,,,,0.01 µg/mL
B6,,,,inhibition of osteoclast development,
